# According to patent US20110118131A1 (published 2011):
# Changes are numbered by the printed parent chain. Names and notes keep the numbering of the source.
# B1: XPA23 light chain S50H (Fab, V domains shown)
# VH: EVQLLESGGGLVQPGGSLRLSCAASGFTFSKYFMFWVRQAPGKGLEWVSVISPSGGMTRYADSVKGRFTISRDNSKNTLYLQMNSLRAEDTAVYYCARVGYGGNSDYWGQGTLVTVSS
# VL: DIQMTQSPSSVSASVGDRLTIICRASQDINRWLAWYQQTPGNAPKLLIHHATSLQSGVPSRFSGSGSGTDFTLTINSLQPEDFATYYCQQADSFPLTFGGGTKVEIK
# B2: XPA23 light chain T52F (Fab, V domains shown)
# VH: B1 VH
# VL: B1 VL with H50S, T52F
# B3: XPA23 light chain S93E (Fab, V domains shown)
# VH: B1 VH
# VL: B1 VL with H50S, S93E
# B4: XPA23 light chain S93R (Fab, V domains shown)
# VH: B1 VH
# VL: B1 VL with H50S, S93R
# B5: XPA23 light chain T52L (Fab, V domains shown)
# VH: B1 VH
# VL: B1 VL with H50S, T52L
# B6: XPA23 light chain S53Q (Fab, V domains shown)
# VH: B1 VH
# VL: B1 VL with H50S, S53Q
# B7: XPA23 light chain T52R (Fab, V domains shown)
# VH: B1 VH
# VL: B1 VL with H50S, T52R
# B8: XPA23 light chain T52A (Fab, V domains shown)
# VH: B1 VH
# VL: B1 VL with H50S, T52A
# B9: XPA23 light chain S93N (Fab, V domains shown)
# VH: B1 VH
# VL: B1 VL with H50S, S93N
# B10: XPA23 light chain S50Q (Fab, V domains shown)
# VH: B1 VH
# VL: B1 VL with H50Q
# B11: XPA23 light chain T52H (Fab, V domains shown)
# VH: B1 VH
# VL: B1 VL with H50S, T52H
# B12: XPA23 light chain S50R (Fab, V domains shown)
# VH: B1 VH
# VL: B1 VL with H50R
# B13: XPA23 light chain S93K (Fab, V domains shown)
# VH: B1 VH
# VL: B1 VL with H50S, S93K
# B14: XPA23 light chain T52I (Fab, V domains shown)
# VH: B1 VH
# VL: B1 VL with H50S, T52I
# B15: XPA23 light chain S53W (Fab, V domains shown)
# VH: B1 VH
# VL: B1 VL with H50S, S53W
# B16: XPA23 light chain S93Y (Fab, V domains shown)
# VH: B1 VH
# VL: B1 VL with H50S, S93Y
# B17: XPA23 light chain S53F (Fab, V domains shown)
# VH: B1 VH
# VL: B1 VL with H50S, S53F
# B18: XPA23 light chain T52G (Fab, V domains shown)
# VH: B1 VH
# VL: B1 VL with H50S, T52G
# B19: XPA23 light chain S93W (Fab, V domains shown)
# VH: B1 VH
# VL: B1 VL with H50S, S93W
# B20: XPA23 light chain S53E (Fab, V domains shown)
# VH: B1 VH
# VL: B1 VL with H50S, S53E
# B21: XPA23 light chain S50P (Fab, V domains shown)
# VH: B1 VH
# VL: B1 VL with H50P
# B22: XPA23 light chain T52S (Fab, V domains shown)
# VH: B1 VH
# VL: B1 VL with H50S, T52S
# B23: XPA23 light chain T52N (Fab, V domains shown)
# VH: B1 VH
# VL: B1 VL with H50S, T52N
# B24: XPA23 light chain S53N (Fab, V domains shown)
# VH: B1 VH
# VL: B1 VL with H50S, S53N
# B25: XPA23 light chain S50V (Fab, V domains shown)
# VH: B1 VH
# VL: B1 VL with H50V
# B26: XPA23 light chain T52Q (Fab, V domains shown)
# VH: B1 VH
# VL: B1 VL with H50S, T52Q
# B27: XPA23 light chain S50N (Fab, V domains shown)
# VH: B1 VH
# VL: B1 VL with H50N
# B28: XPA23 light chain T52K (Fab, V domains shown)
# VH: B1 VH
# VL: B1 VL with H50S, T52K
# B29: XPA23 light chain T52P (Fab, V domains shown)
# VH: B1 VH
# VL: B1 VL with H50S, T52P
# B30: XPA23 light chain S93F (Fab, V domains shown)
# VH: B1 VH
# VL: B1 VL with H50S, S93F
# B31: XPA23 light chain S53K (Fab, V domains shown)
# VH: B1 VH
# VL: B1 VL with H50S, S53K
# B32: XPA23 light chain S93D (Fab, V domains shown)
# VH: B1 VH
# VL: B1 VL with H50S, S93D
# B33: XPA23 light chain S50I (Fab, V domains shown)
# VH: B1 VH
# VL: B1 VL with H50I
# B34: XPA23 light chain T52D (Fab, V domains shown)
# VH: B1 VH
# VL: B1 VL with H50S, T52D
# B35: XPA23 light chain S53D (Fab, V domains shown)
# VH: B1 VH
# VL: B1 VL with H50S, S53D
# B36: XPA23 light chain S93H (Fab, V domains shown)
# VH: B1 VH
# VL: B1 VL with H50S, S93H
# B37: XPA23 light chain T52E (Fab, V domains shown)
# VH: B1 VH
# VL: B1 VL with H50S, T52E
# B38: XPA23 light chain S53R (Fab, V domains shown)
# VH: B1 VH
# VL: B1 VL with H50S, S53R
# B39: XPA23 light chain S50T (Fab, V domains shown)
# VH: B1 VH
# VL: B1 VL with H50T
# B40: XPA23 light chain S50K (Fab, V domains shown)
# VH: B1 VH
# VL: B1 VL with H50K
# B41: XPA23 light chain S93Q (Fab, V domains shown)
# VH: B1 VH
# VL: B1 VL with H50S, S93Q
# B42: XPA23 light chain S50W (Fab, V domains shown)
# VH: B1 VH
# VL: B1 VL with H50W
# B43: XPA23 light chain S50L (Fab, V domains shown)
# VH: B1 VH
# VL: B1 VL with H50L
# B44: XPA23 light chain S50Y (Fab, V domains shown)
# VH: B1 VH
# VL: B1 VL with H50Y
# B45: XPA23 light chain S53Y (Fab, V domains shown)
# VH: B1 VH
# VL: B1 VL with H50S, S53Y
# Molecular target: T1, IL-1β (UniProt P01584 117-269)
# T1 construct: Antigen immobilised on the Biacore chip
# Assay: Biacore, periplasmic extract
fold difference in affinity vs original [fold],binding result,Binder
0.05,–,B1
1.05,–,B2
3.71,–,B3
0.91,–,B4
0.78,–,B5
1.09,–,B6
3.37,–,B7
0.66,–,B8
3.76,–,B9
0.21,–,B10
0.91,–,B11
–,no binding,B12
0.86,–,B13
0.8,–,B14
1.11,–,B15
1.45,–,B16
1.24,–,B17
–,no binding,B18
5.49,–,B19
1.13,–,B20
–,no binding,B21
0.78,–,B22
0.83,–,B23

fold difference in affinity vs original [fold],binding result,Binder
1.23,–,B24
0.21,–,B25
0.83,–,B26
0.25,–,B27
3.23,–,B28
1.08,–,B29
1.32,–,B30
4.07,–,B31
4.59,–,B32
0.25,–,B33
0.72,–,B34
–,no binding,B35
1.08,–,B36
0.61,–,B37
3.29,–,B38
0.87,–,B39
0.1,–,B40
1.54,–,B41
0.02,–,B42
0.49,–,B43
0.05,–,B44
1.23,–,B45
